Assay results published in publication PMC6224091.

B1: V5-Par6A (wild type) [not stated] / YFP-Tuba [not stated] (parent)
chain 1: MARPQRTPARSPDSIVEVKSKFDAEFRRFALPRASVSGFQEFSRLLRAVHQIPGLDVLLGYTDAHGDLLPLTNDDSLHRALASGPPPLRLLVQKRAEADSSGLAFASNSLQRRKKGLLLRPVAPLRTRPPLLISLPQDFRQVSSVIDVDLLPETHRRVRLHKHGSDRPLGFYIRDGMSVRVAPQGLERVPGIFISRLVRGGLAESTGLLAVSDEILEVNGIEVAGKTLDQVTDMMVANSHNLIVTVKPANQRNNVVRGASGRLTGPPSAGPGPAEPDSDDDSSDLVIENRQPPSSNGLSQGPPCWDLHPGCRHPGTRSSLPSLDDQEQASSGWGSRIRGDGSGFSL
chain 2: MEAGSVVRAIFDFCPSVSEELPLFVGDIIEVLAVVDEFWLLGKKEDVTGQFPSSFVEIVTIPSLKEGERLFVCICEFTSQELDNLPLHRGDLVILDGIPTAGWLQGRSCWGARGFFPSSCVRELCLSSQSRQWHSQSALFQIPEYSMGQARALMGLSAQLDEELDFREGDVITIIGVPEPGWFEGELEGRRGIFPEGFVELLGPLRTVDESVSSGNQDDCIVNGEVDTPVGEEEIGPDEDEEEPGTYGVALYRFQALEPNELDFEVGDKIRILATLEDGWLEGSLKGRTGIFPYRFVKLCPDTRVEETMALPQEGSLARIPETSLDCLENTLGVEEQRHETSDHEAEEPDCIISEAPTSPLGHLTSEYDTDRNSYQDEDTAGGPPRSPGVEWEMPLATDSPTSDPTEVVNGISSQPQVPFHPNLQKSQYYSTVGGSHPHSEQYPDLLPLEARTRDYASLPPKRMYSQLKTLQKPVLPLYRGSSVSASRVVKPRQSSPQLHNLASYTKKHHTSSVYSISERLEMKPGPQAQGLVMEAATHSQGDGSTDLDSKLTQQLIEFEKSLAGPGTEPDKILRHFSIMDFNSEKDIVRGSSKLITEQELPERRKALRPPPPRPCTPVSTSPHLLVDQNLKPAPPLVVRPSRPAPLPPSAQQRTNAVSPKLLSRHRPTCETLEKEGPGHMGRSLDQTSPCPLVLVRIEEMERDLDMYSRAQEELNLMLEEKQDESSRAETLEDLKFCESNIESLNMELQQLREMTLLSSQSSSLVAPSGSVSAENPEQRMLEKRAKVIEELLQTERDYIRDLEMCIERIMVPMQQAQVPNIDFEGLFGNMQMVIKVSKQLLAALEISDAVGPVFLGHRDELEGTYKIYCQNHDEAIALLEIYEKDEKIQKHLQDSLADLKSLYNEWGCTNYINLGSFLIKPVQRVMRYPLLLMELLNSTPESHPDKVPLTNAVLAVKEINVNINEYKRRKDLVLKYRKGDEDSLMEKISKLNIHSIIKKSNRVSSHLKHLTGFAPQIKDEVFEETEKNFRMQERLIKSFIRDLSLYLQHIRESACVKVVAAVSMWDVCMERGHRDLEQFERVHRYISDQLFTNFKERTERLVISPLNQLLSMFTGPHKLVQKRFDKLLDFYNCTERAEKLKDKKTLEELQSARNNYEALNAQLLDELPKFHQYAQGLFTNCVHGYAEAHCDFVHQALEQLKPLLSLLKVAGREGNLIAIFHEEHSRVLQQLQVFTFFPESLPATKKPFERKTIDRQSARKPLLGLPSYMLQSEELRASLLARYPPEKLFQAERNFNAAQDLDVSLLEGDLVGVIKKKDPMGSQNRWLIDNGVTKGFVYSSFLKPYNPRRSHSDASVGSHSSTESEHGSSSPRFPRQNSGSTLTFNPSSMAVSFTSGSCQKQPQDASPPPKECDQGTLSASLNPSNSESSPSRCPSDPDSTSQPRSGDSADVARDVKQPTATPRSYRNFRHPEIVGYSVPGRNGQSQDLVKGCARTAQAPEDRSTEPDGSEAEGNQVYFAVYTFKARNPNELSVSANQKLKILEFKDVTGNTEWWLAEVNGKKGYVPSNYIRKTEYT

Variants of: B1
Assay: co-immunoprecipitation (IP: GFP), quantified blot
Details: with YFP-Tuba; HEK293T cells; co-expressed with HA-Cdc42(G12V); n = 4; parent: 1; read off a plot

| Variant | ratio to parent |
| --- | --- |
| chain 1 I133A S134A | 0.73 |
